Data taken from US20170260274A1.

How the values were obtained:
[1] = biological target: epidermal growth factor receptor (EGFR) (human), P00533; assay: flow cytometry, equilibrium binding on EGFR-expressing A431 cells (apparent KD)
[2] = biological target: epidermal growth factor receptor (EGFR) (human), P00533; assay: cell-based or functional assay

B1: Ranpirnase-DEN-scFv (protein)
chain: QDWLTFQKKHITNTRDVDCDNIMSTNLFHCKDKNTFIYSRPEPVKAICKGIIASKNVLTTSEFYLSDCNVTSRPCKYKLKKSTNKFCVTCENQAPVHFVGVGSCMVDRGWGNGCGLFGKGGIVEVQLVESGGGLVQPGGSLRLSCAASGFSLTNYGVHWVRQAPGKGLEWLGVIWSGGNTDYNTPFTSRFTISRDNSKNTLYLQMNSLRAEDTAVYYCARALTYYDYEFAYWGQGTTVTVSSGGGGSGGGGSGGGGSDIQLTQSPSFLSASVGDRVTITCRASQSIGTNIHWYQQKPGKAPKLLIKYASESISGVPSRFSGSGSGTEFTLTISSLQPEDFATYYCQQNNNWPTTFGAGTKLEIKR
modifications: not checked
Kd [1]: 11.2 nM
IC50 (nM), cell viability, A431 [2]: 38 nM
IC50 (nM), cell viability, HNO97 [2]: 411 nM
IC50 (nM), cell viability, HNO211 [2]: 18 nM
IC50 (nM), cell viability, HNO410 [2]: 308 nM
fold increase in potency compared to Ranpirnase-GS-scFv, HNO211 cells [2]: 79 fold
